Measured values as given in patent US20170022269A1 (AbbVie / Abbott, published 2017).

T1: Aβ(12-42) globulomer (human)
T1 construct: also called truncated Aβ(12-42) globulomer
T1 peptide: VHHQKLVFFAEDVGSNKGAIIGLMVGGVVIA

T2: Aβ(20-42) globulomer (human)
T2 construct: also called truncated Aβ(20-42) globulomer; Aβ(20-42) globular oligomer
T2 peptide: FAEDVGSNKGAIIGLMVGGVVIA

B1: monoclonal antibody 7C6 (antibody, V domains shown)
VH: EVKLVESGGGLVKPGGSLKLSCAASGFTFSSYAMSWVRQTPAKRLEWVASIHNRGTIFYLDSVKGRFTISRDNVRNTLYLQMSSLRSEDTAIYYCTRGRSNSYAMDYWGQGTSVTVSS
VL: DVLVTQSPLSLPVRLGDQASISCRSTQTLVHRNGDTYLEWYLQKPGQSPKSLIYKVSNRFSGVPDRFSGSGSGTDFTLKISRVEAEDLGVYYCFQGSHVPYTFGGGTKLEIKR
notes: Mouse monoclonal antibody from hybridoma; also called ML13-7C6.1D4.4A9.5G8; hybridoma ATCC PTA-7240
B2: monoclonal antibody 7E5 (antibody, V domains shown)
VH: EVKLVESGGGLVQPGGSRKLSCAASGFTFSDYEMVWVRQAPGEGLEWVAYISSGSRTIHYADTVKGRFTISRDNPKNTLFLQMSSLRSEDTAMYYCARTLLRLHFDYWGQGTILTVSS
VL: DIVMSQSPSSLAVSVGEKVTMSCRSSQSLFYRSNQKNFLAWYQQKPGQSPKLLIYWASTRESGVPDRFTGSGSGTDFTLTISSVKAEDLAVYYCQQYYSYPWTFGGGTKLEIKR
notes: Mouse monoclonal antibody from hybridoma; also called ML15-7E5.5E12; hybridoma ATCC PTA-7809
B3: monoclonal antibody 4B7 (antibody, V domains shown)
VH: EVKLVESGGGLVQPGGSRKLSCAASGFTFSDYEMVWVRQAPGEGLEWVAYISSGSRTIHYADTVKGRFTISRDNPKNTLFLQMSSLRSEDTAMYYCARTLLRLHFDYWGQGTILTVSS
VL: DIVMSQSPSSLAVSVGEKVTMSCRSSQSLFYRSNQKNFLAWYQQKPGQSPKLLIYWASTRESGVPDRFTGSGSGTDFTLTISSVKAEDLAVYYCQQYYSYPWTFGGGTKLEIKR
notes: Mouse monoclonal antibody from hybridoma; also called ML15-4B7.3A6; hybridoma ATCC PTA-7242
B4: monoclonal antibody 10C1 (antibody, V domains shown)
VH: EVKLVESGGGLVQPGGSRKLSCAASGFTFSDYEMVWVRQAPGKGLEWVAYINSGSGTIHYADTVKGRFTISRDNPKNTLFLQMSSLRSEDTAMYYCARTLLRLHFDYWGQGTILTVSS
VL: DIVMSQSPSSLAVSVGEKVTMSCKSSQSLFYSRNQKNFLAWYQQKPGQSPKLLIYWASTGESGVPDRFTGSGSGTDFTLTISSVKAEDLAVYYCQQYFSYPWTFGGGTKLEIKR
notes: Mouse monoclonal antibody from hybridoma; also called ML15-10C1.5C6.3H4; hybridoma ATCC PTA-7810
B5: monoclonal antibody 4D10 (antibody, V domains shown)
VH: QVQLKQSGPSLIQPSQSLSITCTVSGFSLTSYGVHWVRQSPGKGLEWLGVIWRGGRIDYNAAFMSRLSITKDNSKSQVFFKMNSLQADDTAIYYCARNSDVWGTGTTVTVSS
VL: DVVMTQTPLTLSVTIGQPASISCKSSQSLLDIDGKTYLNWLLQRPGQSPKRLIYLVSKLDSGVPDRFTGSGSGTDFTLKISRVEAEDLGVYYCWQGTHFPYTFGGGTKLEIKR
notes: Mouse monoclonal antibody from hybridoma; also called ML13-4D10.3F3; hybridoma ATCC PTA-7405
B6: monoclonal antibody 10F11 (antibody, V domains shown)
VH: QVQLQQSGPELVKPGASVKMSCKASGYTFTSYVMHWVKQRPGQGLEWIGYIYPYNDGTKYNEKFKGKATLTSDKSSSTVYMELSSLTSEDSTVYYCTVEGATWDGYFDVWGTGTTVTVSS
VL: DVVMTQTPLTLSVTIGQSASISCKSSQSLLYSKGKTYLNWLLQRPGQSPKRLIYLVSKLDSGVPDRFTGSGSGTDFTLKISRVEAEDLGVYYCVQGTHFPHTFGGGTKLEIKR
notes: Mouse monoclonal antibody from hybridoma; also called ML15-10F11.3D9; hybridoma ATCC PTA-7239
B7: monoclonal antibody 5F7 (antibody, V domains shown)
VH: QVQLKQSGAELVRPGTSVKMSCKASGYTFTTFYIHWVKQRPGQGLEWIGMIGPGSGNTYYNEMFKDKATLTVDTSSSTAYMQLSSLTSEDSAVYFCARAKSARAAWFAYWGQGTLVTVSA
VL: DVLMTQTPLSLPVSLGDQASISCRSSQSVVQSNGNTYLEWYLQKPGQSPKLLIYKVSNRFSGVPDRFSGSGSGTDFTLKISRVEAEDLGVYYCFQGSHVPPTFGGGTKLEIKR
notes: Mouse monoclonal antibody from hybridoma, Protein A purified; also called mAb 5F7; ML15-5F7.5B10
B8: monoclonal antibody 2F2 (antibody, V domains shown)
VH: QVQLKQSGAELVRPGTSVKMSCKASGYTFTTFYIHWVKQRPGQGLEWIGMIGPGSGNTYYNEMFKDKATLTVDTSSSTAYMQLSSLTSEDSAVYFCARAKSARAAWFAYWGQGTLVTVSA
VL: DVLMTQTPLSLPVSLGDQASISCRSSQSVVQSNGNTYLEWYLQKPGQSPKLLIYKVSNRFSGVPDRFSGSGSGTDFTLKISRVEAEDLGVYYCFQGSHVPPTFGGGTKLEIKR
notes: Mouse monoclonal antibody from hybridoma; also called ML15-2F2.3E12; hybridoma ATCC PTA-7408
B9: monoclonal antibody 6A2 (antibody, V domains shown)
VH: QVQLQQSGAELVRPGTSVKMSCKASGYTFTTFYIHWVRQRPGQGLEWIGMIGPGSGNTYYNEMFKDKATLTVDTSSSTAYMQLSSLTSEDSAVYFCARAKSHRAAWFAYWGQGTLVTVSA
VL: DVLMTQTPLSLPVSLGDQASISCRSSQSVVQSNGNTYLEWYLQKPGQSPKLLIYKVSNRFFGVPDRFSGSRSGTDFTLKISRVEAEDLGVYYCFQGSHVPPTFGGGTKLEIKR
notes: Mouse monoclonal antibody from hybridoma; also called ML15-6A2.4B10; hybridoma ATCC PTA-7409

How the values were obtained:
Aβ(12-42) globulomer [1] = biological target: T1, Aβ(12-42) globulomer; assay: dot blot on nitrocellulose
Protocol: (§1) Dot blot procedure: [0556] 1) 1 μl each of the different Aβ-standards (in their 5 serial dilutions) were dotted onto the nitrocellulose membrane in a distance of approximately 1 cm from each other. [0557] 2) The Aβ-standards dots were allowed to dry on the nitrocellulose membrane on air for at least 10 min at room temperature (RT)(=dot blot) [0558] 3) Blocking: [0559] The dot blot was incubated with 30 ml 5% low fat milk in TBS for 1.5 h at RT. [0560] 4) Washing: [0561] The blocking solution was discarded and the dot blot was incubated under shaking with 20 ml TTBS for 10 min at RT. [0562] 5) Antibody solution I: [0563] The washing buffer was discarded and the dot blot was incubated with antibody solution I for 2 h at RT [0564] 6) Washing: [0565] The antibody solution I was discarded and the dot blot was incubated under shaking with 20 ml TTBS for 10 min at RT. The washing solution was discarded and the dot blot was incubated under shaking with 20 ml TTBS for 10 min at RT. The washing solution was discarded and the dot blot was incubated under shaking with 20 ml TBS for 10 min at RT. [0566] 7) Antibody solution II: [0567] The washing buffer was discarded and the dot blot was incubated with antibody solution II overnight at RT [0568] 8) Washing: [0569] The antibody solution II was discarded and the dot blot was incubated under shaking with 20 ml TTBS for 10 min at RT. The washing solution was discarded and the dot blot was incubated under shaking with 20 ml TTBS for 10 min at RT. The washing solution was discarded and the dot blot was incubated under shaking with 20 ml TBS for 10 min at RT. [0570] 9) Development: [0571] The washing solution was discarded. The dot blot was developed with 10 ml BM Blue POD Substrate for 10 min. The development was stopped by intense washing of the dot blot with H₂O. Quantitative evaluation was done using a densitometric analysis (GS800 densitometer (BioRad) and software package Quantity one, Version […] (BioRad)) of the dot-intensity. […] This threshold value was determined for every dot-blot independently. The calculated value indicates the relation between recognition of Aβ(20-42) globulomer and the respective Aβ form for the antibody given

Aβ(1-40) monomer [2] = biological target: T3, Aβ(1-40) monomer (human); assay: dot blot on nitrocellulose
T3 construct: also called monomeric Aβ(1-40); Aβ(1-40) monomer, 0.1% NH4OH
Protocol: as §1

sAPPα (Sigma) [3] = biological target: T4, sAPPα (Sigma) (UniProt P05067-4 18-612, limits assumed); assay: dot blot on nitrocellulose
T4 construct: Bought protein; also called Sigma cat. no; S9564
Protocol: as §1

sAPPα (Sigma) [4] = biological target: T4, sAPPα (Sigma); assay: dot blot densitometry, antibody 0.2 µg/ml; column sAPPα
Protocol: as §1

Aβ(12-42) globulomer [5] = biological target: T1, Aβ(12-42) globulomer; assay: dot blot densitometry, antibody 0.2 µg/ml; column Aβ(12-42) globulomer
Protocol: as §1

Aβ(1-40) monomer [6] = biological target: T3, Aβ(1-40) monomer; assay: dot blot densitometry, antibody 0.2 µg/ml; column Aβ(1-40) monomer, 0.1% NaOH
Protocol: as §1

Aβ(1-40) monomer [7] = biological target: T3, Aβ(1-40) monomer; assay: dot blot densitometry, antibody 0.2 µg/ml; column Aβ(1-40) monomer, 0.1% NH4OH
Protocol: as §1

Aβ(20-42) globulomer = biological target: T2, Aβ(20-42) globulomer; assay: dot blot densitometry, antibody 0.2 µg/ml; column Aβ(20-42) globulomer (reference)
Protocol: as §1

Aβ(12-42) globulomer [8] = biological target: T1, Aβ(12-42) globulomer; assay: dot blot, antibody 0.2 µg/ml
Protocol: Dot blot procedure: [0556] 1) 1 μl each of the different Aβ-standards (in their 5 serial dilutions) were dotted onto the nitrocellulose membrane in a distance of approximately 1 cm from each other. [0557] 2) The Aβ-standards dots were allowed to dry on the nitrocellulose membrane on air for at least 10 min at room temperature (RT)(=dot blot) [0558] 3) Blocking: [0559] The dot blot was incubated with 30 ml 5% low fat milk in TBS for 1.5 h at RT. [0560] 4) Washing: [0561] The blocking solution was discarded and the dot blot was incubated under shaking with 20 ml TTBS for 10 min at RT. [0562] 5) Antibody solution I: [0563] The washing buffer was discarded and the dot blot was incubated with antibody solution I for 2 h at RT [0564] 6) Washing: [0565] The antibody solution I was discarded and the dot blot was incubated under shaking with 20 ml TTBS for 10 min at RT. The washing solution was discarded and the dot blot was incubated under shaking with 20 ml TTBS for 10 min at RT. […] Quantitative evaluation was done using a densitometric analysis (GS800 densitometer (BioRad) and software package Quantity one, Version […] (BioRad)) of the dot-intensity. […] This threshold value was determined for every dot-blot independently. The calculated value indicates the relation between recognition of Aβ(20-42) globulomer and the respective Aβ form for the antibody given

T3 sequence (peptide, as listed by the source): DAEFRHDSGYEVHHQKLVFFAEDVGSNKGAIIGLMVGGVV
T4 sequence (P05067 other isoform, or with tags, fused parts or gaps limits assumed): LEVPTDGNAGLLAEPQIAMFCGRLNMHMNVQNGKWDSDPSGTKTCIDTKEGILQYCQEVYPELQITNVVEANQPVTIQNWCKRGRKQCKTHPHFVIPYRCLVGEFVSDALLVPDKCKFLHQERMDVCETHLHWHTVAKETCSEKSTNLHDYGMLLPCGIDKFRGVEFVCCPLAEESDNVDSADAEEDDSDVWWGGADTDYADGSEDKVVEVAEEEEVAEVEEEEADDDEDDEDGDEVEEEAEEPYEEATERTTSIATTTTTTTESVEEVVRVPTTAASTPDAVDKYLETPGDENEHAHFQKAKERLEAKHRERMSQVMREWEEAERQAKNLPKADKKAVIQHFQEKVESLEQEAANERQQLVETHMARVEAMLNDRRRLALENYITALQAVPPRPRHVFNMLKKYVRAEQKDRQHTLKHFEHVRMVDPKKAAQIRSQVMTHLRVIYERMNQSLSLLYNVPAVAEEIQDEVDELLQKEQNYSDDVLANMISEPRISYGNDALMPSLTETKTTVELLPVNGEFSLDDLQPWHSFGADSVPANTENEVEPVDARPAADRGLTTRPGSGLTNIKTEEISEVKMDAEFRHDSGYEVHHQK

| Binder | binding result (Aβ(12-42) globulomer [1]) | binding result (Aβ(1-40) monomer [2]) | binding result (sAPPα (Sigma) [3]) | relation between recognition of Aβ(20-42) globulomer and the respective Aβ form (sAPPα (Sigma) [4]) | relation between recognition of Aβ(20-42) globulomer and the respective Aβ form (Aβ(12-42) globulomer [5]) | relation between recognition of Aβ(20-42) globulomer and the respective Aβ form (Aβ(1-40) monomer [6]) | relation between recognition of Aβ(20-42) globulomer and the respective Aβ form (Aβ(1-40) monomer [7]) | relation between recognition of Aβ(20-42) globulomer and the respective Aβ form (Aβ(20-42) globulomer) | binding result (Aβ(12-42) globulomer [8]) |
| --- | --- | --- | --- | --- | --- | --- | --- | --- | --- |
| B1 | no binding | no binding | no binding (tested: antibody 0.2 µg/ml; first dot 1 pmol) | > 1000 | > 100000 | > 100000 | > 100000 | 1 |  |
| B2 | no binding | no binding | no binding (tested: antibody 0.2 µg/ml; first dot 1 pmol) | > 1000 | > 100000 | > 100000 | > 100000 | 1 |  |
| B3 | no binding | no binding | no binding (tested: antibody 0.2 µg/ml; first dot 1 pmol) | > 1000 | > 100000 | > 100000 |  | 1 |  |
| B4 | no binding | no binding | no binding (tested: antibody 0.2 µg/ml; first dot 1 pmol) | > 1000 | > 100000 | > 100000 | > 100000 | 1 |  |
| B5 |  | no binding | no binding (tested: antibody 0.2 µg/ml; first dot 1 pmol) | > 100 | 29 |  |  | 1 |  |
| B6 |  |  | no binding (tested: antibody 0.2 µg/ml; first dot 1 pmol) | > 1000 | 12 |  |  | 1 |  |
| B7 |  | no binding | no binding (tested: antibody 0.2 µg/ml; first dot 1 pmol) | > 100 |  |  | > 10000 | 1 | binds |
| B8 |  | no binding | no binding (tested: antibody 0.2 µg/ml; first dot 1 pmol) | > 100 |  | > 10000 | > 10000 | 1 | binds |
| B9 |  |  | no binding (tested: antibody 0.2 µg/ml; first dot 1 pmol) | > 1000 |  |  |  |  |  |
